± gives the standard error. This sample holds only a part of the variants without activity.
B1: glmS ribozyme (parent)
chain: AUAAAAGCGCCAGAACUACAGAAAUGUAGUUGACGAGGAGGAGGUUUAUCGAAUUUUCGGCGGAUGCCUCCAAA

How the values were obtained:
Settings in all cases: with glucosamine-6-phosphate
glucosamine-6-phosphate [1] = variants of: B1; test: self-cleavage kobs at 40 uM GlcN6P; higher = faster cleavage; RNA array
How it was run: (§1)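 Barcoded ribozyme variants, transcribed in situ by E. coli RNA polymerase on sequenced MiSeq chips, were followed via a hybridised Cy3 probe at 37 °C. Glucosamine-6-phosphate ranged from 40 μM to 10 mM in HEPES/KCl/Mg(OAc)2 buffer. kobs came from decay fits to per-tile medians, and kcat and KM from weighted Michaelis–Menten fits.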

glucosamine-6-phosphate [2] = variants of: B1; test: self-cleavage kobs at 640 uM GlcN6P; higher = faster cleavage; RNA array
How it was run: as §1

glucosamine-6-phosphate [3] = variants of: B1; test: self-cleavage kobs at 2500 uM GlcN6P; higher = faster cleavage; RNA array
How it was run: as §1

glucosamine-6-phosphate [4] = variants of: B1; test: self-cleavage kobs at 10000 uM GlcN6P; higher = faster cleavage; RNA array
How it was run: as §1

glucosamine-6-phosphate [5] = variants of: B1; test: self-cleavage kobs at 160 uM GlcN6P; higher = faster cleavage; RNA array
How it was run: as §1

Which “self-cleavage kobs at 40 uM GlcN6P” value (glucosamine-6-phosphate [1]) does the source give for C11A A14U A15G G29A G44U C61A here?
The value was < 1e-05 s⁻¹.

What about the “self-cleavage kobs at 640 uM GlcN6P” value (glucosamine-6-phosphate [2]) of the same variant?
Its value is < 1e-05 s⁻¹.

What about the “self-cleavage kobs at 2500 uM GlcN6P” value (glucosamine-6-phosphate [3]) of the same variant?
Its value is < 1e-05 s⁻¹.

What about the “self-cleavage kobs at 10000 uM GlcN6P” value (glucosamine-6-phosphate [4]) of the same variant?
Its value is < 1e-05 s⁻¹.

For C11G U45A, which “self-cleavage kobs at 40 uM GlcN6P” value (glucosamine-6-phosphate [1]) is on record?
Its value is < 1e-05 s⁻¹.

For A6U G43A U45G U57A G59U, which “self-cleavage kobs at 40 uM GlcN6P” value (glucosamine-6-phosphate [1]) is on record?
Its value is < 1e-05 s⁻¹.

What about the “self-cleavage kobs at 10000 uM GlcN6P” value (glucosamine-6-phosphate [4]) of the same variant?
Its value is < 1e-05 s⁻¹.

With G35A U45A C71A as the variant, how does the “self-cleavage kobs at 40 uM GlcN6P” value (glucosamine-6-phosphate [1]) read?
Its value is < 1e-05 s⁻¹.

How did the “self-cleavage kobs at 40 uM GlcN6P” value (glucosamine-6-phosphate [1]) turn out when A33U G35U was run?
Its value is < 1e-05 s⁻¹.

And the “self-cleavage kobs at 640 uM GlcN6P” value (glucosamine-6-phosphate [2])?
Its value is < 1e-05 s⁻¹.

What about the “self-cleavage kobs at 2500 uM GlcN6P” value (glucosamine-6-phosphate [3]) of the same variant?
Its value is < 1e-05 s⁻¹.

And the “self-cleavage kobs at 10000 uM GlcN6P” value (glucosamine-6-phosphate [4])?
The value was < 1e-05 s⁻¹.

With G35U G63U as the variant, how does the “self-cleavage kobs at 40 uM GlcN6P” value (glucosamine-6-phosphate [1]) read?
Its value is < 1e-05 s⁻¹.

And the “self-cleavage kobs at 160 uM GlcN6P” value (glucosamine-6-phosphate [5])?
The value was < 1e-05 s⁻¹.

And the “self-cleavage kobs at 640 uM GlcN6P” value (glucosamine-6-phosphate [2])?
The value was < 1e-05 s⁻¹.

What about the “self-cleavage kobs at 2500 uM GlcN6P” value (glucosamine-6-phosphate [3]) of the same variant?
Its value is < 1e-05 s⁻¹.

What about the “self-cleavage kobs at 10000 uM GlcN6P” value (glucosamine-6-phosphate [4]) of the same variant?
Its value is < 1e-05 s⁻¹.

Which “self-cleavage kobs at 40 uM GlcN6P” value (glucosamine-6-phosphate [1]) does the source give for G7C C11U G40U C71A here?
The value was < 1e-05 s⁻¹.

What about the “self-cleavage kobs at 640 uM GlcN6P” value (glucosamine-6-phosphate [2]) of the same variant?
Its value is < 1e-05 s⁻¹.

What about the “self-cleavage kobs at 2500 uM GlcN6P” value (glucosamine-6-phosphate [3]) of the same variant?
The value was < 1e-05 s⁻¹.

And the “self-cleavage kobs at 10000 uM GlcN6P” value (glucosamine-6-phosphate [4])?
Its value is < 1e-05 s⁻¹.

What does the source list for A39C U49G?
self-cleavage kobs at 40 uM GlcN6P (glucosamine-6-phosphate [1]): < 1e-05 s⁻¹; self-cleavage kobs at 160 uM GlcN6P (glucosamine-6-phosphate [5]): < 1e-05 s⁻¹; self-cleavage kobs at 2500 uM GlcN6P (glucosamine-6-phosphate [3]): 4.21e-05 ± 1.9e-05 s⁻¹; self-cleavage kobs at 10000 uM GlcN6P (glucosamine-6-phosphate [4]): 6.91e-05 ± 9.5e-06 s⁻¹

G13C U45C was tested. Which “self-cleavage kobs at 40 uM GlcN6P” value (glucosamine-6-phosphate [1]) did it give?
The value was < 1e-05 s⁻¹.

And the “self-cleavage kobs at 160 uM GlcN6P” value (glucosamine-6-phosphate [5])?
The value was < 1e-05 s⁻¹.

And the “self-cleavage kobs at 640 uM GlcN6P” value (glucosamine-6-phosphate [2])?
Its value is < 1e-05 s⁻¹.

What about the “self-cleavage kobs at 2500 uM GlcN6P” value (glucosamine-6-phosphate [3]) of the same variant?
Its value is < 1e-05 s⁻¹.

Which “self-cleavage kobs at 40 uM GlcN6P” value (glucosamine-6-phosphate [1]) does the source give for U30A U49A G62U here?
The value was < 1e-05 s⁻¹.

For C8G U30G G60A, which “self-cleavage kobs at 40 uM GlcN6P” value (glucosamine-6-phosphate [1]) is on record?
The value was < 1e-05 s⁻¹.

And the “self-cleavage kobs at 10000 uM GlcN6P” value (glucosamine-6-phosphate [4])?
The value was < 1e-05 s⁻¹.

For C34G G37U G38C U47G U56C, which “self-cleavage kobs at 40 uM GlcN6P” value (glucosamine-6-phosphate [1]) is on record?
Its value is < 1e-05 s⁻¹.

And the “self-cleavage kobs at 10000 uM GlcN6P” value (glucosamine-6-phosphate [4])?
The value was < 1e-05 s⁻¹.

With U31G C68A as the variant, how does the “self-cleavage kobs at 40 uM GlcN6P” value (glucosamine-6-phosphate [1]) read?
The value was < 1e-05 s⁻¹.

What about the “self-cleavage kobs at 640 uM GlcN6P” value (glucosamine-6-phosphate [2]) of the same variant?
The value was 3.5e-05 ± 1.6e-05 s⁻¹.

What about the “self-cleavage kobs at 2500 uM GlcN6P” value (glucosamine-6-phosphate [3]) of the same variant?
Its value is 8.49e-05 ± 1.9e-05 s⁻¹.

What does the source list for U54A C68U?
self-cleavage kobs at 40 uM GlcN6P (glucosamine-6-phosphate [1]): 0.000391 ± 6.1e-05 s⁻¹; self-cleavage kobs at 160 uM GlcN6P (glucosamine-6-phosphate [5]): 0.000218 ± 4.6e-05 s⁻¹; self-cleavage kobs at 640 uM GlcN6P (glucosamine-6-phosphate [2]): 0.000767 ± 0.00017 s⁻¹; self-cleavage kobs at 2500 uM GlcN6P (glucosamine-6-phosphate [3]): 0.000405 ± 0.00011 s⁻¹

How did the “self-cleavage kobs at 40 uM GlcN6P” value (glucosamine-6-phosphate [1]) turn out when A15G G43C was run?
Its value is < 1e-05 s⁻¹.

And the “self-cleavage kobs at 160 uM GlcN6P” value (glucosamine-6-phosphate [5])?
The value was < 1e-05 s⁻¹.

What about the “self-cleavage kobs at 640 uM GlcN6P” value (glucosamine-6-phosphate [2]) of the same variant?
Its value is < 1e-05 s⁻¹.

And the “self-cleavage kobs at 2500 uM GlcN6P” value (glucosamine-6-phosphate [3])?
The value was < 1e-05 s⁻¹.

And the “self-cleavage kobs at 10000 uM GlcN6P” value (glucosamine-6-phosphate [4])?
The value was < 1e-05 s⁻¹.

Which “self-cleavage kobs at 40 uM GlcN6P” value (glucosamine-6-phosphate [1]) does the source give for A39C C50G U55C here?
Its value is < 1e-05 s⁻¹.

And the “self-cleavage kobs at 10000 uM GlcN6P” value (glucosamine-6-phosphate [4])?
The value was < 1e-05 s⁻¹.

What does the source list for C34U A48G?
self-cleavage kobs at 40 uM GlcN6P (glucosamine-6-phosphate [1]): < 1e-05 s⁻¹; self-cleavage kobs at 160 uM GlcN6P (glucosamine-6-phosphate [5]): < 1e-05 s⁻¹; self-cleavage kobs at 640 uM GlcN6P (glucosamine-6-phosphate [2]): < 1e-05 s⁻¹; self-cleavage kobs at 2500 uM GlcN6P (glucosamine-6-phosphate [3]): < 1e-05 s⁻¹; self-cleavage kobs at 10000 uM GlcN6P (glucosamine-6-phosphate [4]): < 1e-05 s⁻¹

C8A A39C was tested. Which “self-cleavage kobs at 40 uM GlcN6P” value (glucosamine-6-phosphate [1]) did it give?
Its value is < 1e-05 s⁻¹.

And the “self-cleavage kobs at 160 uM GlcN6P” value (glucosamine-6-phosphate [5])?
Its value is < 1e-05 s⁻¹.

And the “self-cleavage kobs at 640 uM GlcN6P” value (glucosamine-6-phosphate [2])?
Its value is < 1e-05 s⁻¹.

What about the “self-cleavage kobs at 10000 uM GlcN6P” value (glucosamine-6-phosphate [4]) of the same variant?
The value was < 1e-05 s⁻¹.

Which results are given for C16A G29A A36U U65A C71U?
self-cleavage kobs at 40 uM GlcN6P (glucosamine-6-phosphate [1]): < 1e-05 s⁻¹; self-cleavage kobs at 640 uM GlcN6P (glucosamine-6-phosphate [2]): < 1e-05 s⁻¹

Which “self-cleavage kobs at 40 uM GlcN6P” value (glucosamine-6-phosphate [1]) does the source give for C16A G62U here?
The value was < 1e-05 s⁻¹.

What about the “self-cleavage kobs at 160 uM GlcN6P” value (glucosamine-6-phosphate [5]) of the same variant?
The value was < 1e-05 s⁻¹.

And the “self-cleavage kobs at 640 uM GlcN6P” value (glucosamine-6-phosphate [2])?
Its value is < 1e-05 s⁻¹.

With C16U U47G as the variant, how does the “self-cleavage kobs at 40 uM GlcN6P” value (glucosamine-6-phosphate [1]) read?
Its value is 0.000296 ± 4.7e-05 s⁻¹.

What about the “self-cleavage kobs at 160 uM GlcN6P” value (glucosamine-6-phosphate [5]) of the same variant?
Its value is 0.000527 ± 0.00011 s⁻¹.

And the “self-cleavage kobs at 640 uM GlcN6P” value (glucosamine-6-phosphate [2])?
Its value is 0.00106 ± 0.00021 s⁻¹.

What about the “self-cleavage kobs at 2500 uM GlcN6P” value (glucosamine-6-phosphate [3]) of the same variant?
Its value is 0.00142 ± 0.00037 s⁻¹.

And the “self-cleavage kobs at 10000 uM GlcN6P” value (glucosamine-6-phosphate [4])?
Its value is 0.00951 ± 0.0018 s⁻¹.
